Results on 30 molecules are retold here after patent publication EP4582447A1 (Quaerite Biopharm Research (Beijing) Co., Ltd., dated 2025).

Where a chain is given by its changes, count along the chain named. Some results are limits rather than exact numbers.

To fix the notation:
B1: V31 (VHH)
VHH: QLQLVESGGGSVQPGGSLRLSCEVSGRTFASYTMGWFRQAPGKEREFVVAISKGGYKYDAVSLEARFTISKDNTKNTVYLQMNSLKPEDTAVYYCAGTRAYGSSRLRLAKTYEYWGQGTQVTVSS
notes: Purified with C-terminal GGGGS-6×His
B2: V30 (VHH)
VHH: B1 VHH with A30S, E44G, G97A
notes: Purified with C-terminal GGGGS-6×His; also called candidate antibody V30
B3: V41 (VHH)
VHH: B1 VHH with A30S, A60S
notes: as for B1
B4: V36 (VHH)
VHH: B1 VHH with A60S, K110D
notes: as for B1
B5: V29 (VHH)
VHH: B1 VHH with A30S, A60S, K110N
notes: as for B1
B6: V43 (VHH)
VHH: B1 VHH with A30T, A60S, K110N
notes: as for B1
B7: V33 (VHH)
VHH: B1 VHH with A30S, A60S, G97A
notes: as for B1
B8: V40-3H-2m (VHH)
VHH: EVQLVESGGGLVQPGGSLRLSCAASGRTFSSYTMGWFRQAPGKEREFVVAISKGGYKYNAVSLEARFTISRDNSKNTVYLQMNSLRPEDTAVYYCAATRAYGSSRLRLAKTYEYWGQGTLVTVSS
notes: Humanized V40
B9: V40-4H-4m (VHH)
VHH: B8 VHH with S30T, S74A, A97S
notes: Humanized V40
B10: V30-3H-2m (VHH)
VHH: B8 VHH with E44G, N59D
notes: Humanized V30
B11: V40-3H-4m (VHH)
VHH: B8 VHH with S74A, A97S
notes: Humanized V40
B12: V40-4H-2m (VHH)
VHH: B8 VHH with S30T
notes: Humanized V40
B13: V1-4m (VHH)
VHH: B8 VHH with N59D, A60S, S74A, A97S, K110D
notes: Humanized V1
B14: V13-4m (VHH)
VHH: B8 VHH with S30T, N59D, S74A, A97G, K110D
notes: Humanized V13
B15: V13-2m (VHH)
VHH: B8 VHH with S30T, N59D, A97G, K110D
notes: Humanized V13 (CDR graft on humanized V1 frameworks)
B16: V1-SA3 (VHH)
VHH: B8 VHH with N59D, A60S, S74A, P87A, K110D
notes: Humanized V1
B17: V1-com-74-78-97 (VHH)
VHH: B8 VHH with N59D, A60S, S74A, P87A, A97S, K110D
notes: Humanized V1
B18: V1-com-78 (VHH)
VHH: B8 VHH with N59D, A60S, P87A, K110D
notes: Humanized V1
B19: V43-4m (VHH)
VHH: B8 VHH with S30T, N59D, A60S, S74A, A97G, K110N
notes: Humanized V43
B20: V30-2H-2m (VHH)
VHH: B8 VHH with N59D
notes: Humanized V30
B21: V43-3H-78 (VHH)
VHH: B8 VHH with S30T, N59D, A60S, P87A, A97G, K110N
notes: Humanized V43
B22: V43-1H-2m (VHH)
VHH: B8 VHH with N59D, A60S, K110N
notes: Humanized V43
B23: V43-3H-87 (VHH)
VHH: B8 VHH with S30T, N59D, A60S, V78L, A97G, K110N
notes: Humanized V43
B24: V30-2H-87 (VHH)
VHH: B8 VHH with N59D, V78L
notes: Humanized V30
B25: V43-1H-87 (VHH)
VHH: B8 VHH with N59D, A60S, V78L, K110N
notes: Humanized V43
B26: V30-2H-78 (VHH)
VHH: B8 VHH with N59D, P87A
notes: Humanized V30
B27: V43-1H-78 (VHH)
VHH: B8 VHH with N59D, A60S, P87A, K110N
notes: Humanized V43
B28: V1-2m (VHH)
VHH: B8 VHH with N59D, A60S, K110D
notes: Humanized V1
B29: V1-com-87 (VHH)
VHH: B8 VHH with N59D, A60S, V78L, K110D
notes: Humanized V1

One experiment deals with T1, Human VEGFA165 (human, UniProt P15692-4 27-191).
T1 construct: treated as the same molecule; also called antigen VEGFA
T1 sequence (P15692 other isoform, or with tags, fused parts or gaps limits assumed): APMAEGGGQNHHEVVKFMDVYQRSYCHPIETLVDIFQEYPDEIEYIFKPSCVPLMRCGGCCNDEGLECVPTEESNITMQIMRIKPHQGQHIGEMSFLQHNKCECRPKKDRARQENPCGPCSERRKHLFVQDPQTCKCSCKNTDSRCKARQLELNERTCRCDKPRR
Nature of the experiment: SPR, VEGFA165 on CM5.
In the case of B1, the “fold difference of KD from the positive control BI-VEGF ab” value (shortened to “fold difference of KD”) was < 3 fold.
As to B2, the “fold difference of KD” value was < 3 fold.
Take B3: the “fold difference of KD” value was < 3 fold.
As for B4, the “fold difference of KD” value is < 3 fold.
Take B5: the “fold difference of KD” value was < 3 fold.
Consider B6, for which the “fold difference of KD” value was < 3 fold.
For the molecule B7, the “fold difference of KD” value was < 3 fold.

The target of a further experiment is T1, Human VEGFA165. Nature of the experiment: cell-based or functional assay.
As for “negative control antibody (nanobody binding to an irrelevant antigen) (VHH)”, the Maximum inhibition rate (%) of HUVEC proliferation was found to be 0%.
As for B2, the “IC50 (pM), inhibition of VEGFA-stimulated HUVEC proliferation (CCK-8)” value is 1270 pM and the “Maximum inhibition rate (%) of HUVEC proliferation” value worked out at 87.4%.

In the next experiment the target is T1, Human VEGFA165. Put plainly: ELISA, VEGFA coated 0.3 µg/mL, anti-His detection. On the technique in general: An ELISA detects its analyte on a solid surface through an enzyme-linked reagent.
As usually defined, the EC50 is the concentration giving half of the maximal effect. For B1, the EC50 was found to be 0.67 nM.
Molecule B2 had an EC50 of 0.6 nM.
The molecule B3 registered a 50% effective concentration (EC50) of 0.57 nM.
On to B4, for which the EC50 amounted to 0.36 nM.
Same read-out and setting: the figure for B5 is 0.77 nM.
As for B6, the EC50 came to 0.53 nM.
Turning to B7, the EC50 worked out at 0.64 nM.

The target in another experiment is T1, Human VEGFA165. Put plainly: ELISA, VEGFA coated 0.3 µg/mL, anti-His detection. The source holds these as a separate data set.
The molecule B8 returned an EC50 of 1.64 nM.
Take B9: the EC50 turned out to be 2.34 nM.
In the case of B10, the concentration for a half-maximal effect (EC50) turned out to be 1.38 nM.
For B11, the midpoint of the response, the EC50, lay at 2.05 nM.
On the same count and under the same terms, next, B12: 2.82 nM.

The target in a further experiment is T1, Human VEGFA165. Put plainly: phage ELISA, VEGFA coated 0.5 µg/mL, anti-M13(HRP).
In the case of B1, the OD450 turned out to be 2.67 OD450.
On the same count and under the same terms, next, B2: 2.68 OD450.
With B3, the OD450 amounted to 2.77 OD450.
Molecule B4 had an OD450 of 2.77 OD450.
In turn, B5 showed an OD450 of 2.69 OD450.
B6 registered an OD450 of 2.5 OD450.
Still for that read-out and setting: the figure for B7 is 2.53 OD450.

In another experiment the target is 3% milk powder (negative control). Nature of the experiment: phage ELISA, 3% milk powder coated (negative control), anti-M13(HRP).
Regarding B1, the OD450 amounted to 0.0363 OD450.
For the molecule B2, the OD450 was determined as 0.0436 OD450.
Same read-out and setting: next, B3: 0.0359 OD450; B4: 0.0623 OD450.
B5 registered an OD450 of 0.0553 OD450.
Regarding B6, the OD450 came to 0.0519 OD450.
On to B7, for which the OD450 came to 0.0489 OD450.

The target of a further experiment is T1, Human VEGFA165. Nature of the experiment: competition ELISA on coated VEGFA, competitor VEGFR2-ECD-Fc 1 nM.
Usually IC50 stands for the concentration needed to halve the response being measured. As for B1, the IC50 is 2.07 nM and the “Maximum inhibition rate (%)” value was 97.5%.
As for B2, the IC50 stood at 3.54 nM and the “Maximum inhibition rate (%)” value turned out to be 96.5%.
In the case of B4, the IC50 turned out to be 4.72 nM and the “Maximum inhibition rate (%)” value amounted to 96.3%.
The matching figures for B5: 2.98 nM and 95.3%.
On to B6, for which the IC50 came to 6 nM and the “Maximum inhibition rate (%)” value worked out at 93.7%.
As for B7, the IC50 was found to be 3.91 nM and the “Maximum inhibition rate (%)” value was 96.3%.

The next experiment deals with T1, Human VEGFA165. Put plainly: competition ELISA on coated VEGFA, competitor VEGFR2-ECD-Fc 2 nM.
Take B13: the IC50 is 26.1 nM and the “Maximum inhibition rate (%)” value is 93%.
B14: the IC50 amounted to 26.8 nM and the “Maximum inhibition rate (%)” value was 89.2%.
Consider B15, for which the IC50 worked out at 40.1 nM and the “Maximum inhibition rate (%)” value is 88.9%.
Take B16: the IC50 was found to be 26.7 nM and the “Maximum inhibition rate (%)” value amounted to 93.5%.
Consider B17, for which the IC50 was determined as 20 nM and the “Maximum inhibition rate (%)” value amounted to 94.4%.
With B18, the IC50 stood at 28.5 nM and the “Maximum inhibition rate (%)” value is 93.7%.
Take B19: the IC50 is 35.5 nM and the “Maximum inhibition rate (%)” value is 89.3%.

For another experiment, the target named is T1, Human VEGFA165. Put plainly: competition ELISA on coated VEGFA, competitor VEGFR2-ECD-Fc 1 nM. The source holds these as a separate data set.
As for B20, the 50% inhibitory concentration (IC50) was 5.64 nM and the “Maximum inhibition rate (%)” value stood at 94.7%.
Consider B21, for which the IC50 was 8.63 nM and the “Maximum inhibition rate (%)” value worked out at 93.4%.
For the molecule B22, the IC50 was determined as 5.99 nM and the “Maximum inhibition rate (%)” value came to 94.5%.
As for B23, the IC50 worked out at 7.15 nM and the “Maximum inhibition rate (%)” value was determined as 91.6%.
Regarding B2, the IC50 amounted to 5.72 nM and the “Maximum inhibition rate (%)” value was determined as 94.8%.
The matching figures for B24: 5.81 nM and 94.2%.
B25: the IC50 amounted to 5.27 nM and the “Maximum inhibition rate (%)” value amounted to 95.4%.
B26: the concentration for half-maximal inhibition (IC50) was 4.97 nM and the “Maximum inhibition rate (%)” value was 95.5%.
In the same order, the values of B27 are 5.62 nM and 95.5%.

A further experiment concerns the target T1, Human VEGFA165. Put plainly: SPR Biacore 8K, VEGFA165 amine-coupled on CM5, nanobody as analyte, 1:1 model.
Usually Kd stands for a measure of binding affinity in units of concentration. High values mean a looser complex, low ones a tighter complex. One may read the koff as the first-order rate constant of dissociation. Lower therefore signals a long-lived complex. Usually kon stands for the second-order rate constant of association. Read a low kon as slow association. In the case of B1, the affinity, expressed as Kd, was 0.62 nM; the koff came out at 0.000172 s⁻¹; the kon amounted to 277000 M⁻¹ s⁻¹.
Regarding B2, binding was characterised by a dissociation constant (Kd) of 0.214 nM, the koff was 0.000136 s⁻¹ and the kon turned out to be 635000 M⁻¹ s⁻¹.
For the molecule B3, the affinity, expressed as Kd, was 0.482 nM; the off-rate (koff) worked out at 0.00016 s⁻¹; the kon is 331000 M⁻¹ s⁻¹.
For the molecule B4, binding was put at a Kd of 0.285 nM, the off-rate (koff) came to 0.00012 s⁻¹ and the kon was 419000 M⁻¹ s⁻¹.
The molecule B5 gave a Kd of 0.436 nM, a koff of 0.000127 s⁻¹ and a kon of 291000 M⁻¹ s⁻¹.
In the case of B6, the Kd is 0.193 nM, the koff amounted to 8.09e-05 s⁻¹ and the on-rate (kon) stood at 418000 M⁻¹ s⁻¹.
In turn, B7 had a Kd of 0.522 nM, a koff of 0.000168 s⁻¹ and a kon of 323000 M⁻¹ s⁻¹.

A further experiment deals with T1, Human VEGFA165. Described as above. The source holds these as a separate data set.
Regarding B28, the affinity, expressed as Kd, was 0.243 nM; the dissociation rate constant (koff) came out at 8.24e-05 s⁻¹; the kon stood at 339000 M⁻¹ s⁻¹.
For the molecule B29, the dissociation constant (Kd) was 0.252 nM, the koff is 9.08e-05 s⁻¹ and the kon was found to be 360000 M⁻¹ s⁻¹.
The molecule B18 yielded an equilibrium dissociation constant (Kd) of 0.257 nM, a dissociation rate constant (koff) of 8.91e-05 s⁻¹ and an association rate constant (kon) of 347000 M⁻¹ s⁻¹.
